Test results as given in patent US20150291675A1 (published 2015).

Experiments:
[1] = target: T1, C-terminal biotinylated human Hepcidin-25 (human, not fully specified; biotinylated via a Lysine residue coupled to the C-terminus via a Mini-PEG linker); assay: direct ELISA, hepcidin captured via Neutravidin
T1 construct: Captured on plates via Neutravidin in the ELISAs; also called C-terminal biotinylated hHepcidin; C-terminal biotinylated hepcidin (Bachem AG)
T1 peptide: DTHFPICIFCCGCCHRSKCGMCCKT
Experimental: A “direct” ELISA was performed to verify the binding affinity and specificity of the selected Lcn2 muteins. Therefore, a constant concentration of 1 μg/ml C-terminal biotinylated hepcidin (Bachem AG, CH) was captured on the surface of a polystyrol plate (Greiner, GE) via Neutravidin (Thermo Scientific, 5 μg/ml). Two step dilution series of purified Lcn2 muteins were incubated with the captured hepcidin […] at room temperature and detected either via the Strep-tag II using a rabbit anti-strep-tag II polyconal antibody (GenScript, USA) or by using a scaffold-specific polyclonal rabbit antibody. In both cases an anti rabbit IgG-HRP conjugate (Abcam, UK) was employed as secondary detection antibody.

[2] = target: T2, synthetic non-modified human Hepcidin-25 (human, not fully specified); assay: SPR (Biacore T100), mutein amine-coupled to CM5 chip, hepcidin as analyte, 1:1 model
T2 construct: also called hHepcidin-25; non-biotinylated human Hepcidin-25
T2 peptide: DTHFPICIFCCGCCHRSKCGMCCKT
Experimental: Lipocalin muteins were immobilized to a CM5 sensor chip using standard amine chemistry. The surface of the chip was activated using EDC and NHS. Subsequently, 20 μg/mL lipocalin mutein solutions in 10 mM sodium acetate pH 4.5 (60 μg/mL in 10 mM sodium acetate pH 4.0 for peglyted lipocalin mutein) were applied at a flow rate of 5 μL/min until a surface density of 500-700 resonance units (RU) for non-modified lipocalin muteins and of approximately 1600 RU for pegylated lipocalin with the sequence of SEQ ID NO: 13 was achieved. Residual activated groups were saturated with ethanolamine. The reference channels were treated with EDC/NHS following ethanolamine (blank immobilization). All reagents and materials were purchased from GE Healthcare.
Serial dilutions of human and cynomolgus Hepcidin-25 in running buffer (HBS-EP+, GE Healthcare, BR-1006-68) were applied to the prepared surface. The following parameters were used for the binding assay, contact time 60 s, dissociation time 180-360 s, flow rate 30 μL/min. All measurements were performed on a Biacore T100 instrument (GE Healthcare) at 25° C.
Data were evaluated with Biacore T100 Evaluation software (V 2.0.1). Double referencing was used. The 1:1 Binding model (Langmuir) was used to fit the raw data.

[3] = target: T1, C-terminal biotinylated human …; assay: HT-screening ELISA, reverse ELISA and competition ELISA; T7- and Strep-tagged clone in crude lysate
Experimental: Lipocalin muteins were selected in a HT-screening ELISA. Therein, NGAL variants equipped with a T7 detection tag (Novagen) as well as a Strep-tag II affinity tag (IBA) were soluble expressed in a 96 well microtiter plate using the E. coli strain TG1/F with phNGAL 101. This vector corresponds to phNGAL 98 (SEQ ID NO: 31) with an N-terminal T7 tag consisting of 11 amino acids ([…]) (SEQ ID NO: 34, see also FIG. 4B). Lipocalin mutein expression was induced overnight at 22° C. at 700 rpm with anhydrotetracycline (0.2 μg/ml) at an OD₅₅₀ of 0.6. […] To minimize non-specific binding in the subsequent ELISA screen, the crude cell lysates were supplemented with 2% w/v BSA and 0.1% v/v Tween 20 and tested in ELISA for binding to human Hepcidin-25. Therefore, soluble C-terminal biotinylated human Hepcidin-25 was immobilized on wells of black Fluotrac 600 ELISA plates (Greiner; 384 well) with 1 μg/ml via capturing by Neutravidin (5 μg/ml, Thermo Scientific). Neutravidin, Streptavidin, 5 μg/ml each, and 3% milk were used as negative control. Plates were blocked with PBST/0.1 containing 2% w/v BSA, and subsequently incubated with the bacterial cell extract for 1 h at room temperature plates were washed five times and bound Lipocalin muteins were detected via an anti-T7 monoclonal antibody-HRP conjugate (Novagen), diluted 1:10.000 in PBST/O 1. Therefore, QuantaBlu™ (Pierce; 1:2 diluted in PBS/T 0.1%) was used as fluorogenic HRP substrate. After 45 min of signal development at room temperature fluorescence was excited at a wavelength of 320 nm (±12.5 nm) and measured at 430 nm (±17.5 nm) in a GENiosPlus plate reader (Tecan).
In a reverse ELISA approach soluble expressed muteins from the crude cell lysate were captured in ELISA plates via their T7-tag following incubation with varying amounts of C-terminal biotinylated hHepcidin to reach target-limiting conditions in order to differentiate the muteins by their affinity. Binding of the target was detected via Extravidin-HRP conjugate (Sigma). One could compete for mutein binding by the addition of 100 nM non-biotinylated human Hepcidin-25 indicating, that the muteins bind the non-modified hHepcidin-25 as well.

Binder | binding result [1] | binding result [2] | binding result [3]
lipocalin mutein of SEQ ID NO: 1 (designed binder, also called hNGAL mutein; Lcn2 mutein; not shown: C-terminal Strep-tag II encoded by phNGAL98) QDSTSDLIPAPPLSKVPLQQNFQDNQFHGKWYVVGLAGNEVLREDKDPMKMWATIYELEEDKSYNVTIVMFLAKKCEYLFQTFVPGSQPGEFTLGDIKSSPGRTSGLVRVVSTNYNQHAMVFFKTVWQNREVFWITLYGRTKELTSELKENFIRFSKSLGLPENHIVFPVPIDQCIDG | binds | binds | –
lipocalin mutein of SEQ ID NO: 8 (designed binder, Purified with C-terminal Strep-tag II; also called hNGAL mutein; Lcn2 mutein; not shown: C-terminal Strep-tag II encoded by phNGAL98) QDSTSDLIPAPPLSKVPLQQNFQDNQFHGKWYVVGLAGNEVLREDKDPMKMWATIYELKEDKSYNVTIVMPLAEKCEYLFQTFVPGSQPGEFTLGGIKSGPGRTSGLVRVVSTNYNQHAMVFFKVVWQNREVFWVTLYGRTKELTSELKENFIRFSKSLGLPENHIVFPVPIDQCIDG | – | binds | binds
lipocalin mutein of SEQ ID NO: 9 (designed binder, Purified with C-terminal Strep-tag II; also called hNGAL mutein; Lcn2 mutein; not shown: C-terminal Strep-tag II encoded by phNGAL98) QDSTSDLIPAPPLSKVPLQQNFQDNQFHGKWYVVGLAGNEVLREDKDPMKMWATIYELKEDKSYNVTIVMSLAKKCEYLFQTFVPGSQPGEFTLGDIKSSPGRTSGLVRVVSTNYNQHAMVFFKVVWQNREVFWITLYGRTKELTSGLKENFIRFSKSLGLPENHIVFPVPIDQCIDG | – | – | binds
lipocalin mutein of SEQ ID NO: 11 (designed binder, Purified with C-terminal Strep-tag II; also called hNGAL mutein; Lcn2 mutein; not shown: C-terminal Strep-tag II encoded by phNGAL98) QDSTSDLIPAPPLSKVPLQQNFQDNQFHGKWYVVGLAGNEILREDKDPMKMWATIYELKEDKSYNVTIVMFLAKKCEYLFQTFVPGSQPGEFTLGDIKSSPGRTSGLVRVVSTNYNQHAMVFFKVVWQNREVFWITLYGRTKELTSGLKENFIRFSKSLGLPENHIVFPVPIDQCIDG | – | – | binds
lipocalin mutein of SEQ ID NO: 12 (designed binder, Purified with C-terminal Strep-tag II; also called hNGAL mutein; Lcn2 mutein; not shown: C-terminal Strep-tag II encoded by phNGAL98) QDSTSDLIPAPPLSKVPLQQNFQDNQFHGKWYVVGLAGNEVLREDKDPMKMWATIYELKEDKSYNVTIVMFLAEECEYLFQTFVPGSQPGEFTLGDIKSSPGRTSGLVRVVSTNYNQHAMVFFKVVWQNREVFWITLYGRTKELTSELKKNFIRFSKSLGLPENHIVFPVPIDQCIDG | – | – | binds
lipocalin mutein of SEQ ID NO: 10 (designed binder, Purified with C-terminal Strep-tag II; also called hNGAL mutein; Lcn2 mutein; not shown: C-terminal Strep-tag II encoded by phNGAL98) QDSTSDLIPAPPLSKVPLQQNFQDNQFHGKWYVVGLAGNEILREDKDPMKMWATIYELKEDRSYNVTIVMFLAKKCEYLFQTFVPGSQPGEFTLGDIKSSPGRTSGLVRVVSTNYNQHAMVFFKVVWQNREVFWITLYGRTKELTPELKENFIRFSKSLGLPENHIVFPVPIDQCIDGF | – | – | binds
lipocalin mutein of SEQ ID NO: 2 (designed binder, Purified with C-terminal Strep-tag II; also called hNGAL mutein; Lcn2 mutein; not shown: C-terminal Strep-tag II encoded by phNGAL98) QDSTSDLIPAPPLSKVPLQQNFQDNQFHGKWYVVGTAGNSILREDKDPQKMWATIYELKEDKSYNVTRVFFEGKKCRYVIETFVPGSQPGEFTLGKIKSAPGGTSILVRVVSTNYNQHAMVFFKVVWQNRELFWITLYGRTKELTSELKENFIRFSKSLGLPENHIVFPVPIDQCIDG | binds | – | –
lipocalin mutein of SEQ ID NO: 3 (designed binder, Purified with C-terminal Strep-tag II; also called hNGAL mutein; Lcn2 mutein; not shown: C-terminal Strep-tag II encoded by phNGAL98) QDSTSDLIPAPPLSKVPLQQNFQDNQFHGKWYVVGVAGNGLLREDKDPLKMHATIYELKEDKSYNVTRVLFVRKKCRYYISTFVPGSQPGEFTLGRIKSEPGRTSFLVRVVSTNYNQHAMVFFKMVWQNREVFWITLYGRTKELTSELKENFIRFSKSLGLPENHIVFPVPIDQCIDG | binds | – | –
lipocalin mutein of SEQ ID NO: 4 (designed binder, Purified with C-terminal Strep-tag II; also called hNGAL mutein; Lcn2 mutein; not shown: C-terminal Strep-tag II encoded by phNGAL98) QDSTSDLIPAPPLSKVPLQQNFQDNQFHGKWYVVGVAGNEMLREDKDPLKMLATIYELKEDKSYNVTRVMFEYKKCVYLIETFVPGSQPGEFTLGTIKSVPGLTSGLVRVVSTNYNQHAMVFFKRVWQNREVFWITLYGRTKELTSELKENFIRFSKSLGLPENHIVFPVPIDQCIDG | binds | – | –
lipocalin mutein of SEQ ID NO: 6 (designed binder, Purified with C-terminal Strep-tag II; also called hNGAL mutein; Lcn2 mutein; not shown: C-terminal Strep-tag II encoded by phNGAL98) QDSTSDLIPAPPLSKVPLQQNFQDNQFHGKWYVVGLAGNEILREDKDPLKMWATIYELKEDKSYNVTRVQFGEKKCGYGIETFVPGSQPGEFTLGSIKSVPGGTSRLVRVVSTNYNQHAMVFFKFVWQNREVFWITLYGRTKELTSELKENFIRFSKSLGLPENHIVFPVPIDQCIDG | binds | – | –
lipocalin mutein of SEQ ID NO: 5 (designed binder, Purified with C-terminal Strep-tag II; also called hNGAL mutein; Lcn2 mutein; not shown: C-terminal Strep-tag II encoded by phNGAL98) QDSTSDLIPAPPLSKVPLQQNFQDNQFHGKWYVVGAAGNSLLREDKDPMKMWATIYELKEDKSYNVTRVNFGGKKCSYLIETFVPGSQPGEFTLGSIKSRPGATSVLVRVVSTNYNQHAMVFFKLVTQNREVFWITLYGRTKELTSELKENFIRFSKSLGLPENHIVFPVPIDQCIDG | binds | – | –
lipocalin mutein of SEQ ID NO: 7 (designed binder, Purified with C-terminal Strep-tag II; also called hNGAL mutein; Lcn2 mutein; not shown: C-terminal Strep-tag II encoded by phNGAL98) QDSTSDLIPAPPLSKVPLQQNFQDNQFHGKWYVVGLAGNRVLREDKDPQKMFATIYELKEDKSYNVTGVDFRTKKCLYSIGTFVPGSQPGEFTLGVIKSQPGWTSYLVRVVSTNYNQHAMVFFKTVWQNREVFWITLYGRTKELTSELKENFIRFSKSLGLPENHIVFPVPIDQCIDG | binds | – | –
